In patent US20250011363A1, “OPTIMIZED SHORTENED PEPTIDE THAT BINDS TO ACETYLCHOLINE RECEPTOR, AND USE THEREOF” (SKINMED CO., LTD., priority 2021, published 2025):

Target: acetylcholine receptor (Homo sapiens, UniProt P02708)
Assay: SPR binding affinity (RU) of optimized 5mer/6mer/7mer peptides, Examples 6-7
Settings: SPR, Resonance Units; peptides tested at 10 μM; 6mer-2 Top sequence
In short: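 600 peptides per series (5mer, 6mer-1, 6mer-2), made from high- or low-frequency amino acid combinations, are screened by SPR at 10 μM; binding is recorded in RU.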

acetylcholine receptor, sequence (P02708 21-457): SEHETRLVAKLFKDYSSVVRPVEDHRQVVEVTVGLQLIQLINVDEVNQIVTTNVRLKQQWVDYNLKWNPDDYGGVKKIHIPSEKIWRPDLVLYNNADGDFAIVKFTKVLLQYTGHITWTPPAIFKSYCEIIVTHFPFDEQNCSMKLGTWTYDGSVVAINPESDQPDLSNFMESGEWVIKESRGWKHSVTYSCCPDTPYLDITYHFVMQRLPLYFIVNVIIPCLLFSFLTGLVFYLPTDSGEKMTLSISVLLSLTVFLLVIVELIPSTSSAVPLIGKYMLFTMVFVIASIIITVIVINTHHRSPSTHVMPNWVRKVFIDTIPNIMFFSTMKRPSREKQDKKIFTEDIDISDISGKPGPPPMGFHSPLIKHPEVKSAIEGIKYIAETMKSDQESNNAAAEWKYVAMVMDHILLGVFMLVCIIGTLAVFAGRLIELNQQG

Substance | Binding affinity [Ru]
6mer-2-403 (KGVLRK) | 123
6mer-2-404 (RVLSKR) | 121
6mer-2-405 (KGYRKK) | 137
6mer-2-406 (KGIYRR) | 139
6mer-2-407 (KQVSKR) | 122
6mer-2-408 (KQIYRR) | 139
6mer-2-409 (KRRRKR) | 139
6mer-2-410 (KRFRKK) | 153
6mer-2-411 (RSRQKK) | 121
6mer-2-412 (KRFLKK) | 139
6mer-2-413 (RLILKR) | 136
6mer-2-414 (KWRQKK) | 135
6mer-2-415 (KGRCKK) | 149
6mer-2-416 (RWRLRR) | 131
6mer-2-417 (RWVYKK) | 151
6mer-2-418 (RVQYKK) | 121
6mer-2-419 (RSRYKK) | 154
6mer-2-420 (RRQYRK) | 128
6mer-2-421 (KVICRK) | 124
6mer-2-422 (RLITRR) | 154
6mer-2-423 (RLQYRK) | 154
6mer-2-424 (RLYCKK) | 139
6mer-2-425 (KLQTKK) | 145
6mer-2-426 (KGQRRK) | 141
6mer-2-427 (RLQRRR) | 147
6mer-2-428 (KVFLKK) | 142
6mer-2-429 (RWRQRK) | 123

Same assay, conditions: SPR, Resonance Units; peptides tested at 10 μM; 6mer-2 Top sequence (Table 12)

Substance | Binding affinity [Ru]
6mer-2-271 (RLFQKK) | 131
6mer-2-272 (KWRSRK) | 154
6mer-2-273 (KLRQRR) | 131
6mer-2-274 (KLRTKR) | 148
6mer-2-275 (KLITRR) | 135
6mer-2-276 (RLVCRK) | 153
6mer-2-277 (RLRYRK) | 128
6mer-2-278 (RQIQKK) | 135
6mer-2-279 (KSLQRK) | 148
6mer-2-280 (KSIYRR) | 153
6mer-2-281 (KGQRKK) | 149
6mer-2-282 (RQQYRK) | 151
6mer-2-283 (KLISKR) | 148
6mer-2-284 (KLRSKR) | 151
6mer-2-285 (RRIQRR) | 142
6mer-2-286 (KRRYKK) | 139
6mer-2-287 (RLYLKR) | 124
6mer-2-288 (KSRLRK) | 122
6mer-2-289 (RLLQKK) | 146
6mer-2-290 (RQLYRK) | 135
6mer-2-291 (RRYRKR) | 154
6mer-2-292 (RQLCKR) | 121

Substance | Binding affinity [Ru]
6mer-2-293 (KQQSKR) | 153
6mer-2-294 (KLYYRR) | 135
6mer-2-295 (KVRYKK) | 145
6mer-2-296 (KWYRRK) | 135
6mer-2-297 (RSLSRR) | 139
6mer-2-298 (KWICKK) | 149
6mer-2-299 (RWYYRK) | 141
6mer-2-300 (RWRLKK) | 153
6mer-2-301 (RQVRKR) | 122
6mer-2-302 (KQICKK) | 148
6mer-2-303 (KVFTKR) | 126
6mer-2-304 (KWFYRK) | 144
6mer-2-305 (KQFYKK) | 154
6mer-2-306 (RQFQKR) | 141
6mer-2-307 (RLRSKK) | 141
6mer-2-308 (KGISKR) | 148
6mer-2-309 (KRRRRR) | 151
6mer-2-310 (KLFQRK) | 149
6mer-2-311 (KVVTRK) | 147
6mer-2-312 (KWRTKR) | 121
6mer-2-313 (RWRTKR) | 154
6mer-2-314 (KQYCKK) | 127

Substance | Binding affinity [Ru]
6mer-2-315 (RRQRRR) | 139
6mer-2-316 (KGIRRR) | 139
6mer-2-317 (RGLYKR) | 135
6mer-2-318 (RGIQKK) | 145
6mer-2-319 (RSRQRK) | 137
6mer-2-320 (RQYRRK) | 148
6mer-2-321 (KLVSRK) | 139
6mer-2-322 (RRYSRR) | 148
6mer-2-323 (KVLLRK) | 145
6mer-2-324 (KLQSRK) | 139
6mer-2-325 (RVFSRK) | 142
6mer-2-326 (RGFYKK) | 142
6mer-2-327 (KGLRKR) | 153
6mer-2-328 (KRYQRK) | 131
6mer-2-329 (RVYTKR) | 142
6mer-2-330 (KQLRKK) | 139
6mer-2-331 (RWVSKK) | 148
6mer-2-332 (RRQYKK) | 145
6mer-2-333 (KRFRRK) | 139
6mer-2-334 (KVILRR) | 146
6mer-2-335 (KWRSRR) | 153
6mer-2-336 (KLITKR) | 135

Substance | Binding affinity [Ru]
6mer-2-337 (KQFQKK) | 142
6mer-2-338 (RSVQKR) | 145
6mer-2-339 (KQVYKK) | 151
6mer-2-340 (RRLTRR) | 122
6mer-2-341 (KVVTKR) | 144
6mer-2-342 (KRYRKK) | 145
6mer-2-343 (KQISKK) | 146
6mer-2-344 (KGIRRK) | 148
6mer-2-345 (KSRQKK) | 148
6mer-2-346 (KRFSKK) | 153
6mer-2-347 (RRYSKK) | 148
6mer-2-348 (KSQLRR) | 153
6mer-2-349 (RRLSRR) | 137
6mer-2-350 (RGQTRK) | 148
6mer-2-351 (KLYTKR) | 135
6mer-2-352 (RWFYRR) | 137
6mer-2-353 (RLQTKK) | 137
6mer-2-354 (RWISKK) | 135
6mer-2-355 (RGIRKK) | 124
6mer-2-356 (RLLQRR) | 145
6mer-2-357 (RGQRKK) | 151
6mer-2-358 (RQIYKK) | 154

Substance | Binding affinity [Ru]
6mer-2-359 (RLFCKK) | 136
6mer-2-360 (KGVRRR) | 141
6mer-2-361 (RSFQRR) | 153
6mer-2-362 (RGRQKR) | 154
6mer-2-363 (KSIYRK) | 147
6mer-2-364 (KVFTKK) | 154
6mer-2-365 (RWRYRR) | 121
6mer-2-366 (KQYYRR) | 142
6mer-2-367 (RWRSRR) | 142
6mer-2-368 (RLRTRR) | 142
6mer-2-369 (KVVRRR) | 145
6mer-2-370 (KSLLRR) | 142
6mer-2-371 (KRLSRR) | 148
6mer-2-372 (KLVQRR) | 141
6mer-2-373 (KLIYRK) | 139
6mer-2-374 (KRQLKK) | 125
6mer-2-375 (RVVQKK) | 131
6mer-2-376 (KQQCKR) | 141
6mer-2-377 (RRYCRR) | 142
6mer-2-378 (KRFQRK) | 131
6mer-2-379 (RGVQKR) | 127
6mer-2-380 (RLVYRK) | 141

Substance | Binding affinity [Ru]
6mer-2-381 (KVYRRR) | 139
6mer-2-382 (KSVSRR) | 148
6mer-2-383 (KLVRRK) | 128
6mer-2-384 (RSFQKK) | 142
6mer-2-385 (RGVCKR) | 154
6mer-2-386 (KWQSKR) | 136
6mer-2-387 (KWLCKK) | 146
6mer-2-388 (KRFQKK) | 139
6mer-2-389 (KSLYKK) | 153
6mer-2-390 (KWLRRR) | 145
6mer-2-391 (KQYQKR) | 141
6mer-2-392 (RQILKR) | 149
6mer-2-393 (RGLQRK) | 145
6mer-2-394 (KLVLKR) | 141
6mer-2-395 (KWRYRR) | 148
6mer-2-396 (KWLQRR) | 122
6mer-2-397 (RSIYRK) | 154
6mer-2-398 (RQQRRR) | 141
6mer-2-399 (RWLTRR) | 148
6mer-2-400 (RQIRRR) | 154
6mer-2-401 (RSILRK) | 153
6mer-2-402 (KRYSRR) | 145
